Data: publication PMC3845532 (Biochemistry, 2013)
Residue numbers refer to the chain shown, from its start. Numbers in names are those of the source. Each block holds one molecule with its values, some of them ahead of it.

Tests used:
[1] = target: C81R mutant PCNA protein from S. cerevisiae (S. cerevisiae) (UniProt P15873); assay: crystal structure
native gel or EMSA = target: the molecule itself; assay: native gel or EMSA
[2] = target: MutSα (Msh2-Msh6) from S. cerevisiae (S. cerevisiae, UniProt P25847 1-964; Q03834 1-1242); assay: ELISA
crystal structure = target: the molecule itself; assay: crystal structure

Chain of MutSα (Msh2-Msh6) from S. cerevisiae (P25847 whole entry, chain 1 of 2): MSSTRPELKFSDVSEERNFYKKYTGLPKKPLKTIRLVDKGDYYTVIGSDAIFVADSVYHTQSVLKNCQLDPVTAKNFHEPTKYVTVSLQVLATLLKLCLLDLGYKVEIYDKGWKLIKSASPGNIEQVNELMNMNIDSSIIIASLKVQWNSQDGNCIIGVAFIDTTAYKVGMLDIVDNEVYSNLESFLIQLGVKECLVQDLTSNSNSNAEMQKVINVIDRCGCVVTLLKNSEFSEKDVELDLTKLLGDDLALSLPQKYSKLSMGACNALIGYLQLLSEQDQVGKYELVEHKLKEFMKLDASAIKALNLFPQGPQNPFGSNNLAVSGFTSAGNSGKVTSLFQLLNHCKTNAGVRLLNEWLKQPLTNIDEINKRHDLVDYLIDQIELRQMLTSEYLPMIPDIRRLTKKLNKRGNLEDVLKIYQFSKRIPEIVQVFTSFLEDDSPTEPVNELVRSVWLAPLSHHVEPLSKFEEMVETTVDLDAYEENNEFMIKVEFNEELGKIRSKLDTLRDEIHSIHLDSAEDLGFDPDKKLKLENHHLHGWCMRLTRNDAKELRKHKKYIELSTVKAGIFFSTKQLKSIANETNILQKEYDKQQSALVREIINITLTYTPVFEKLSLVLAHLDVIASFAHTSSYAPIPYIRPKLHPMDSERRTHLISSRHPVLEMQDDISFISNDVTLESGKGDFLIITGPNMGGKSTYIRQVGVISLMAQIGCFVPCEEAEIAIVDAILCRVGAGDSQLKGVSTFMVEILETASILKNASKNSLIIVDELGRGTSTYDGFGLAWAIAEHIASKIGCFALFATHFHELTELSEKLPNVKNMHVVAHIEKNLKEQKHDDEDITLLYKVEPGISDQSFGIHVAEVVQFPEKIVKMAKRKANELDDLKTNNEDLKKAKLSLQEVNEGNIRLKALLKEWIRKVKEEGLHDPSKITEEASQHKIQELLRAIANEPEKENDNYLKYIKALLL
Chain of MutSα (Msh2-Msh6) from S. cerevisiae (Q03834 whole entry, chain 2 of 2): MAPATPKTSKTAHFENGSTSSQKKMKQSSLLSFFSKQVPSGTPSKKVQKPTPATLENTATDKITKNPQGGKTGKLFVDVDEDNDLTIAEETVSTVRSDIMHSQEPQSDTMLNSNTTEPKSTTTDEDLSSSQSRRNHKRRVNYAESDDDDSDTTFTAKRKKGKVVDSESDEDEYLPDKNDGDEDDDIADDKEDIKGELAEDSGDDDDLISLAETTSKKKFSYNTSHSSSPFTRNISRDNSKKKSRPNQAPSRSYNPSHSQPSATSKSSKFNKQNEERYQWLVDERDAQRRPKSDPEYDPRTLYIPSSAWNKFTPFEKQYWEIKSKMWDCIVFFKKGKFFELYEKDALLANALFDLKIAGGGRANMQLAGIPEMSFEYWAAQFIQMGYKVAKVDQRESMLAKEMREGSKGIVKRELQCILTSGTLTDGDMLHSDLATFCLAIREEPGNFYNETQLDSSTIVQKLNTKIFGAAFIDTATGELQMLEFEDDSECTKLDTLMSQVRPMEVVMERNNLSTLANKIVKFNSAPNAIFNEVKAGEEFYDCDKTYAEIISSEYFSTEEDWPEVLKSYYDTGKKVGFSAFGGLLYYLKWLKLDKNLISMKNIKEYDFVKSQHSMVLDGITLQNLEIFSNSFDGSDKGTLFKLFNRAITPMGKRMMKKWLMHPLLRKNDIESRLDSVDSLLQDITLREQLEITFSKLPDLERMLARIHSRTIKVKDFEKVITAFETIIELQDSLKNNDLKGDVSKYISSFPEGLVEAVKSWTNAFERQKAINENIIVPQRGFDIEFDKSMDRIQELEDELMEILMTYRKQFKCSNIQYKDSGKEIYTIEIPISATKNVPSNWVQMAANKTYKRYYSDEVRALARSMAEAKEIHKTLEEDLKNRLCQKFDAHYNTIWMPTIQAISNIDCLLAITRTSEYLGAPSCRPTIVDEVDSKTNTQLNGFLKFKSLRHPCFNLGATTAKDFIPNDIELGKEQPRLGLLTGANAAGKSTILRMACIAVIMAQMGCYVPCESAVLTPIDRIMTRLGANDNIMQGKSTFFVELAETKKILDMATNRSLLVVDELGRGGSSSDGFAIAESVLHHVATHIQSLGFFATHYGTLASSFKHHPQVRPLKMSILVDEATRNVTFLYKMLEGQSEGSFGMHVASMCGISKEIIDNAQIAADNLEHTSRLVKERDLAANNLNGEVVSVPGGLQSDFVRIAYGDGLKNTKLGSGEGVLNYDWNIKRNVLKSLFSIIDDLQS

stoichiometry N [1]: 3
Molecule: C81R mutant PCNA protein from S. cerevisiae (from UniProt P15873 1-258) (natural protein)

B1: wild-type PCNA protein (proliferating cell nuclear antigen) from S. cerevisiae (natural protein)
chain: MLEAKFEEASLFKRIIDGFKDCVQLVNFQCKEDGIIAQAVDDSRVLLVSLEIGVEAFQEYRCDHPVTLGMDLTSLSKILRCGNNTDTLTLIADNTPDSIILLFEDTKKDRIAEYSLKLMDIDADFLKIEELQYDSTLSLPSSEFSKIVRDLSQLSDSINIMITKETIKFVADGDIGSGSVIIKPFVDMEHPETSIKLEMDQPVDLTFGAKYLLDIIKGSSLSDRVGIRLSSEAPALFQFDLKSGFLQFFLAPKFNDEE
stoichiometry N (native gel or EMSA): 3

binding result [2]: binds
B2: C22Y mutant PCNA protein from S. cerevisiae (natural protein)
chain: B1 chain with C22Y
stoichiometry N (crystal structure): 3

binding result [2]: binds
B3: C81R mutant PCNA protein from S. cerevisiae (natural protein)
chain: B1 chain with C81R
